{"source": "patent US7470669B2", "about": "“Isolated polypeptide comprising a leptin fragment” (Serono Genetics Institute, S.A., priority 1999, dated 2008)", "key": {"[1]": {"test": "Plasma leptin concentration after subcutaneous leptin injection in ob/ob mice", "assay_type": "in vivo, mouse", "conditions": "50 ng s.c., at 2 h", "from_the_text": "Na ^125I was purchased from Amersham-Pharmacia (Piscataway, N.J.; Les Ulis, France). Oleic acid, bovine serum albumin (A2153) (BSA), were obtained from Sigma (St. Louis, Mo.; St. Quentin Fallavier, France). Sodium heparin was purchased from Choay laboratories (Gentilly, France). Fugene was purchased from Roche Boehringer Mannheim (Indianapolis, Ind.), and Superfect from Qiagen (Valencia, Calif.). Zeocin was obtained from Invitrogen (Carlsbad, Calif.). Suramin was a gift from Bayer Pharmaceuticals (Puteaux, France). Enzymatic kits for the determination of TG and FFA were obtained from Roche-Boehringer Mannheim (Meylan, France) and WAKO (Richmond, Va.; Unipath, Dardilly, France), respectively. Dulbecco's modified Eagle's medium (DMEM), trypsin, penicillin-streptomycin, glutamine, and fetal bovine serum (FBS) were purchased from Life Technologies, Inc (Grand Island, N.Y.; Eragny, France). RIA kits for plasma leptin measurements were obtained from Linco (St. Louis, Mo.). […]\nThis injection caused a transient increase in plasma leptin concentrations up to 3.25±0.03 ng/mL at 2 h; baseline values were recorded 4 h after injection. […]"}, "LSR mRNA": {"test_system": "LSR mRNA", "test": "Northern blot of LSR mRNA in leptin-treated rat hepatocytes", "assay_type": "cell-based", "conditions": "rat hepatocytes after 30 min leptin treatment", "description": "Northern blots were performed as described previously using as a probe clone 18251 described above (Yen F. T., Masson M., Clossais-Besnard N., Andre P., Grosset J. M., Bougueleret L., Dumas J. B., Guerassimenko, O., and Bihain B. E. (1999). J Biol Chem 274, 13390-13398)."}, "LSR β": {"biological_target": "T1, LSR β (Homo sapiens, UniProt Q86X29)", "T1 construct": "The full-length LSR α, α′, and β clones were reconstructed in pTracer-CMV2 vector; expressed in transfected cells; host or cells: CHO-K1, transient (Fugene), pTracer-CMV2", "T1 sequence (Q86X29 1-581 isoform Q86X29-5)": "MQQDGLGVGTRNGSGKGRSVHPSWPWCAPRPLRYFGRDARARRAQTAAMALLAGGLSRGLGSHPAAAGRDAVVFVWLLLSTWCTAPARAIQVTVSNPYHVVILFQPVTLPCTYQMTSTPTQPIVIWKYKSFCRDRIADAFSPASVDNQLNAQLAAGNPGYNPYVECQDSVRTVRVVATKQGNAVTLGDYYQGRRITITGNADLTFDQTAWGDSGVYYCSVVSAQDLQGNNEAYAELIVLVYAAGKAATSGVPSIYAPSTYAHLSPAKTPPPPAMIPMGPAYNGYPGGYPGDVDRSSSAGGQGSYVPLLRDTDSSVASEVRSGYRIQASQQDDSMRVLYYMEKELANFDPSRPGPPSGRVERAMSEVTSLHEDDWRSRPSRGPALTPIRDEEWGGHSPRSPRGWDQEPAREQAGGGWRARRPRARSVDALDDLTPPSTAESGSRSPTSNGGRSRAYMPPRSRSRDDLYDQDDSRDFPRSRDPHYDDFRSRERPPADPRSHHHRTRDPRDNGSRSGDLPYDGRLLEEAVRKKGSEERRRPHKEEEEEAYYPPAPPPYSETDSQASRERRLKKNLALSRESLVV", "test": "125I-leptin binding in CHO-K1 cells transiently transfected with LSR β", "assay_type": "cell-based", "conditions": "transient transfection with LSR β plasmid; 10 ng/mL 125I-leptin", "description": "FIGS. 3A, 3B, 3C, and 3D show the effect of LSR subunit transfection on leptin binding and degradation in CHO-K1 cells. For FIG. 3A, CHO-K1 cells were transfected with increasing concentrations of the α, (□), α′ (▪) or β (◯) LSR plasmid, or vector alone (●) using Fugene transfection reagent. After 48 h, the cells were washed once in PBS and incubated at 37° C. for 2 h with 10 ng/mL of ^125I-leptin in DMEM containing 0.2% (w/v) BSA, 2 mM CaCl2 and 5 mM HEPES, pH 7.4 (Buffer A). The monolayers were washed and lysed with 0.1 N NaOH containing 0.24 mM EDTA, and the lysates were counted. The results are shown as the amount of cell-associated ^125I-leptin. For FIG. 3B, lysates were prepared from CHO-K1 wild type, stable transfectants of vector or LSR α′ subunit, and PLC, and separated on a 10% SDS-polyacrylamide gel under denaturing and reduced conditions. After transfer to nitrocellulose, Western blots were performed using anti-LSR 170 antibody (can also be done with the human equivalent, 93A). […] For FIGS. 3C and 3D, confluent monolayers of stable-transfected cell lines expressing LSR α′ subunit (▪) or vector alone (●) were washed once in PBS and incubated at 37° C. for 2 h with increasing concentrations of ^125I-leptin in Buffer A. The amount of cell-associated (FIG. 3C) and degraded (FIG. 3D) ^125I-leptin was then measured as described herein. […]"}}, "data": [{"substance": "leptin: plasma protein of 16 kDa produced by adipocytes; recombinant human or mouse leptin, species depends on the experiment", "values": [{"measurement": "plasma leptin concentrations", "setting": "[1]", "result": "3.25 ± 0.03", "unit": "ng/mL"}, {"measurement": "LSR mRNA levels (Northern blots)", "setting": "LSR mRNA", "result": "did not increase mRNA levels significantly"}, {"measurement": "Leptin binding to CHO-K1 cells", "setting": "LSR β", "result": "remained at levels similar to those seen with the vector alone"}]}]}
